B1: ClpB-Q427W-Q502C-IAEDANS in the tryptophan-free ClpB-W462Y/W543L variant (natural protein)
chain: not shown
modifications: IAEDANS on the cysteine at 502 (Q502C), labelled with efficiencies of 70-80%
notes: ClpB of E. coli; also called wild type ClpB (FRET pair); source: purified (Ni-IDA, size exclusion chromatography Superdex S200); labelled with 1,5-IAEDANS
B2: ClpP protease (enzyme)
chain: not shown
notes: ClpP protease; source: purified as described previously (Oguchi et al., 2012); copies: 14
B3: ND truncation of E. coli ClpB (residues 159 to 858; E279A/E432A/E678A), SeMet (domain or fragment)
chain: not shown
modifications: selenomethionine (SeMet)
notes: ClpB of E. coli, residues 159 to 858, without the N-terminal domain; One molecule in the asymmetric unit (P65); monomers form a spiral assembly in the crystal; also called ClpB E279A/E432A/E678A (SeMet) + ATP; E. coli ClpB-E432A (crystal structure); source: purified (Ni-IDA, size exclusion chromatography Superdex S200)
B4: ClpB-Q427W-Q502C-IAEDANS (W462Y/W543L) with E432A (natural protein)
chain: not shown
modifications: IAEDANS on the cysteine at 502 (Q502C), labelled with efficiencies of 70-80%
notes: ClpB of E. coli; also called E432A (FRET pair); source: purified (Ni-IDA, size exclusion chromatography Superdex S200); labelled with 1,5-IAEDANS
B5: ClpB-K431C-S499C repressed (E432A) variant (natural protein)
chain: not shown
notes: ClpB of E. coli; source: purified (Ni-IDA, size exclusion chromatography Superdex S200); dialyzed to remove DTT
B6: ClpB-K431C-S499C hyperactive (Y503D) variant (natural protein)
chain: not shown
notes: as for B5

Assays:
[1] = target: the molecule itself; assay: FRET or BRET; Trp (Q427W, donor) to IAEDANS (Q502C, acceptor) between adjacent subunits; low salt buffer A (50 mM Tris pH 7.5, 5 mM MgCl2, 20 mM KCl, 2 mM DTT) without or with 2 mM ATP, 25°C, excitation 290 nm
[2] = target: the molecule itself; assay: negative-stain EM single-particle reconstruction; BAP(HAP)-ClpP complexes formed in 20 mM Tris-HCl pH 7.5, 20 mM KCl, 15 mM MgCl2, 1 mM DTT, 2 mM ATPγS; stained with 2% uranyl acetate; side views of 2:2 complexes cut into 1:1 halves; sixfold symmetry imposed or none
[3] = target: the molecule itself; assay: crystal structure; SeMet protein with ATP (ADP bound), space group P65, one molecule in the asymmetric unit, 3.50 Å
[4] = target: the molecule itself; assay: cross-linking; disulfide cross-linking: 4 μM ClpB cysteine variant, 25 μM Cu-Phenanthroline, 1 min at room temperature; non-reducing SDS gradient gel (3-8%)

Row | Protein | binding result [1] | binding result [4] | further results
1 | B1 | binds |  | 
2 | B2 |  |  | stoichiometry N [2]: 14
3 | B3 |  |  | binding result [3]: binds
4 | B4 | binds |  | 
5 | B5 |  | binds | 
6 | B6 |  | binds | 
